Laboratory results reported in patent US20040258663A1, “Compositions and methods for enhanced mucosal delivery of interferon alpha” (Nastech Pharmaceutical Company Inc., priority 2003, published 2004).

How the values were obtained:
[1] = system: ciliary function in epithelial cell cultures; details: cited from earlier work
EpiAirway cell membrane = assay type: cell-based; details: Table 11
Excerpt: While measurement of mitochondrial reductase activity by MTT reduction is a sensitive probe of cell viability, the assay necessarily destroys the cells and therefore can be carried out only at the end of each study. When cells undergo necrotic lysis, their cytotosolic contents are spilled into the surrounding medium, and cytosolic enzymes such as lactic dehydrogenase (LDH) can be detected in this medium. An assay for LDH in the medium can be performed on samples of medium removed at each time point of the two-hour determination of permeation kinetics.
A. The recommended LDH assay for evaluating cytolysis of the EpiAirway units is based on conversion of lactate to pyruvate with generation of NADH from NAD. The NADH is then reoxidized along with simultaneous reduction of the tetrazolium salt INT, catalyzed by a crude “diaphorase” preparation. The formazan formed from reduction of INT is soluble, so that the entire assay for LDH activity can be carried out in a homogenous aqueous medium containing lactate, NAD, diaphorase, and INT.
B. The assay for LDH activity is carried out on 50 μL aliquots from samples of “supernatant” medium surrounding an EpiAirway unit and collected at each time point. These samples were either stored for no longer than 24 h in the refrigerator or were thawed after being frozen within a few hours after collection. Each EpiAirway unit generates samples of supernatant medium collected at 15 min, 30 min, 1 h, and 2 h after application of the test material. The aliquots are all transferred to a 96 well microplate.
C. A 50 μL aliquot of medium which had not been exposed to a unit serves as a “blank” or negative control of 0% cytotoxicity. […] Thus, within experimental error, these sham-treated units show no cytolysis of the epithelial cells over the time course of the permeation kinetics measurements.
D. To prepare a sample of supernatant medium reflecting the level of LDH released after 100% of the cells in a unit have lysed, a unit which had not been subjected to any prior manipulations is added to a well of a 6-well microplate containing 0.9 mL of medium as in the protocol for determination of permeation kinetics, the plate containing the unit is frozen at −80° C., and the contents of the well are then allowed to thaw. This freeze-thaw cycle effectively lyses the cells and releases their cytosolic contents, including LDH, into the supernatant medium. A 50 μL aliquot of the medium from the frozen and thawed cells is added to the 96-well plate as a positive control reflecting 100% cytotoxicity.
E. To each well containing an aliquot of supernatant medium, a 50 μL aliquot of the LDH assay reagent is added. The plate is then incubated for 30 minutes in the dark.
F. The reactions are terminated by addition of a “stop” solution of 1 M acetic acid, and within one hour of addition of the stop solution, the absorbance of the plate is determined at 490 nm.
G. Computation of percent cytolysis is based on the assumption of a linear relationship between absorbance and cytolysis, with the absorbance obtained from the medium alone serving as a reference for 0% cytolysis and the absorbance obtained from the medium surrounding a frozen and thawed unit serving as a reference for 100% cytolysis.

[2] = Bioavailability of nasal interferon-α in healthy male volunteers versus subcutaneous administration; assay type: in vivo, human; details: for Cmax: 3 MIU, SC, human plasma
Excerpt: The present example provides a non-blinded study to determine the uptake of intranasally administered interferon-α in combination with one or more intranasal delivery-enhancing agents into the blood serum in healthy male volunteers.
Twelve healthy male subjects are enrolled in the step and each receives all 3 test product in a cross over fashion.
Each receive all 3 test products.
The protocol involved three doses of the same test product in a dose escalation manner.
The absorption and tolerance results of all products tested were tabulated and analyzed for Cmax, Tmax, and bioavailability (Area under concentration curve, AUC).
For nasal and injectable preparations in Protocols 1 and 2, 7 mL blood samples were drawn at 0 (prior to dose), 10, 20, 30, 45, 60, 75, 90, 120, 180, 240, 360, and 480 minutes post dosing into appropriate vacutainers.
The blood samples were centrifuged and the serum assayed for drug concentration using ELISA Method.
This is a single dose, parallel group study to evaluate absorption, tolerance and pharmacodynamic parameters of Interferon-α-2b by two routes of administration: subcutaneous and intranasally. The study involves twelve healthy male subjects randomly assigned six per group (6 subjects subcutaneous and 6 intranasal). The objective of the study is to evaluate the absorption, tolerance and pharmacodynamic parameters of intranasal administration of Interferon-α-2b by formulations of the present invention versus subcutaneous administration of interferon-α-2b (IntronA®, Schering, Corp.).
When receiving the intranasal dosage formulations, the subjects were seated and instructed to gently blow their nose before dosing. During dosing, the other nostril must be closed with the forefinger. They were also instructed to tilt their heads slightly back for dosing and to return their heads to an upright position while sniffing in gently immediately following dosing. Subjects must avoid additional sniffing and must remain in a seated position with head upright for 5 minutes after dosing. […]
Serum drug concentrations were measured using a suitable analytical method. […]

[3] = system: EpiAirway™ Cell Membrane (mucosal epithelial cell layer); test: Permeation kinetics of interferon-α-2b measured by ELISA assay; details: Table 9
Method: (§1) The epithelial cells are grown on porous membrane-bottomed cell culture inserts at an air-liquid interface, which results in differentiation of the cells to a highly polarized morphology. […] The inserts have a diameter of 0.875 cm, providing a surface area of 0.6 cm^2.
(§2) A. On arrival, the units are placed onto sterile supports in 6-well microplates. Each well receives 5 mL of proprietary culture medium. This DMEM-based medium is serum free but is supplemented with epidermal growth factor and other factors. The medium is always tested for endogenous levels of any cytokine or growth factor which is being considered for intranasal delivery, but has been free of all cytokines and factors studied to date except insulin. The 5 mL volume is just sufficient to provide contact to the bottoms of the units on their stands, but the apical surface of the epithelium is allowed to remain in direct contact with air. Sterile tweezers are used in this step and in all subsequent steps involving transfer of units to liquid-containing wells to ensure that no air is trapped between the bottoms of the units and the medium.
(§3) B. The units in their plates are maintained at 37° C. in an incubator in an atmosphere of 5% CO2 in air for 24 hours. At the end of this time the medium is replaced with fresh medium and the units are returned to the incubator for another 24 hours.
(§4) A. A “kit” of 24 EpiAirway units can routinely be employed for evaluating five different formulations, each of which is applied to quadruplicate wells. Each well is employed for determination of permeation kinetics (4 time points), transepithelial resistance, mitochondrial reductase activity as measured by MTT reduction, and cytolysis as measured by release of LDH. An additional set of wells is employed as controls, which are sham treated during determination of permeation kinetics, but are otherwise handled identically to the test sample-containing units for determinations of transepithelial resistance and viability.
(§5) B. In all experiments, the mucosal delivery formulation to be studied is applied to the apical surface of each unit in a volume of 100 μL, which is sufficient to cover the entire apical surface. An appropriate volume of the test formulation at the concentration applied to the apical surface (no more than 100 μL is generally needed) is set aside for subsequent determination of concentration of the active material by ELISA or other designated assay.
(§6) D. In order to minimize potential sources of error and avoid any formation of concentration gradients, the units are transferred from one 0.9 mL-containing well to another at each time point in the study. These transfers are made at the following time points, based on a zero time at which the 100 αL volume of test material was applied to the apical surface: 15 minutes, 30 minutes, 60 minutes, and 120 minutes.
(§7) E. In between time points the units in their plates are kept in the 37° C. incubator. Plates containing 0.9 mL medium per well are also maintained in the incubator so that minimal change in temperature occurs during the brief periods when the plates are removed and the units are transferred from one well to another using sterile forceps.

[4] = system: EpiAirway™ Cell Membrane (mucosal epithelial cell layer)
Method: as §1, §2, §3, §4, §5, §6, §7

| Substance | concentration producing ciliostasis / inhibiting ciliary motility [1] [µg/mL] | % Dead Cells at Time-Intervals (min), 0 (EpiAirway cell membrane; 0 min) [%] | % Dead Cells at Time-Intervals (min), 15 (EpiAirway cell membrane; 15 min) [%] | % Dead Cells at Time-Intervals (min), 30 (EpiAirway cell membrane; 30 min) [%] | % Dead Cells at Time-Intervals (min), 60 (EpiAirway cell membrane; 60 min) [%] | % Dead Cells at Time-Intervals (min), 120 (EpiAirway cell membrane; 120 min) [%] | Cmax ([2]; 0 to 3 hour) [IU/mL] | Cmax ([2]; 0 to 4 hour) [IU/mL] | maximum concentration of interferon-α in the blood serum (Cmax) ([2]; subcutaneous, 3 MIU dose, at 3 hours post dosing) [IU/mL] | % Permeated at Time-intervals (min), 0 min ([3]; 0 min) [%] | % Permeated at Time-intervals (min), 15 min ([3]; 15 min) [%] | % Permeated at Time-intervals (min), 30 min ([3]; 30 min) [%] | % Permeated at Time-intervals (min), 60 min ([3]; 60 min) [%] | % Permeated at Time-intervals (min), 120 min ([3]; 120 min) [%] | Fold Increase [4] [fold] |
| --- | --- | --- | --- | --- | --- | --- | --- | --- | --- | --- | --- | --- | --- | --- | --- |
| 2-alkyl-4-hydroxyquinolines [pyo compound] | 50 |  |  |  |  |  |  |  |  |  |  |  |  |  |  |
| interferon α-2b [Intron A] |  | 0 | 0.84 | 0.93 | 1.65 | 4.27 | 4.0 | 6.8 | 4.0 | 0 | 0.000 | 0.003 | 0.011 | 0.022 | 1 |
